The labels stand for the following.
T1: PUF4 RNA-binding domain (Saccharomyces cerevisiae, UniProt P25339 537-888)
T1 sequence: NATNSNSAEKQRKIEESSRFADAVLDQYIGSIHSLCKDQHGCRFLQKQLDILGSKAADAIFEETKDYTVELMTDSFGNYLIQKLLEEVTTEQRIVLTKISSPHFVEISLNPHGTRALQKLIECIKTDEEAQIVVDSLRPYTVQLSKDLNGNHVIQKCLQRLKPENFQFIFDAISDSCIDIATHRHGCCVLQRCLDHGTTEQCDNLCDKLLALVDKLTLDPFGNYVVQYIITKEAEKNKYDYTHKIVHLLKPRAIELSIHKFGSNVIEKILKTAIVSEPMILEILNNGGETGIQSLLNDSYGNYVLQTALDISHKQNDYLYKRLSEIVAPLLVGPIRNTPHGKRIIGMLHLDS

B1: Id_ii_S2_P4E.2_K4.1_C4.2_[C-2G]_[T-1G]_H4.1_A4.1_F4.1_T4.2_[G10T] (ssRNA)
RNA: UUUGAUUAAUAUGAUAUCGUUCUUUCUGGUGUAUAUUAUUUUCUUUCUCGAUAUCAUAUUAAUCUUU
B2: Id_ii_S2_P4E.2_K4.1_C4.2_[C-2G]_[T-1C]_H4.1_A4.1_F4.1_T4.2_[G10T] (ssRNA)
RNA: B1 RNA with G29C
B3: Id_ii_S2_P4E.2_K4.1_C4.2_[C-2G]_H4.1_A4.1_F4.1_T4.2_[G10C]_[T11C] (ssRNA)
RNA: B1 RNA with G29U, U39C, U40C
B4: Id_ii_S2_P4E.2_K4.1_C4.2_[C-2G]_[T-1C]_H4.1_A4.1_F4.1_T4.2_[G10A] (ssRNA)
RNA: B1 RNA with G29C, U39A
B5: Id_ii_S2_P4E.2_K4.1_C4.2_[C-2G]_[T-1C]_H4.1_A4.1_F4.1_T4.2_[G10T]_[T11G] (ssRNA)
RNA: B1 RNA with G29C, U40G
B6: Id_ii_S2_P4E.2_K4.1_C4.2_[C-2T]_[T-1G]_H4.1_A4.1_F4.1_T4.2_[G10T]_[T11G] (ssRNA)
RNA: B1 RNA with G28U, U40G
B7: Id_ii_S2_P4E.2_K4.1_C4.2_[C-2G]_[T-1G]_H4.1_A4.1_F4.1_T4.2_[G10A]_[T11A] (ssRNA)
RNA: B1 RNA with U39A, U40A
B8: Id_ii_S2_P4E.2_K4.1_C4.2_[C-2G]_[T-1C]_H4.1_A4.1_F4.1_T4.2_[G10A]_[T11A] (ssRNA)
RNA: B1 RNA with G29C, U39A, U40A
B9: Id_ii_S2_P4E.2_K4.1_C4.2_[C-2G]_[T-1C]_H4.1_A4.1_F4.1_T4.2_[G10C] (ssRNA)
RNA: B1 RNA with G29C, U39C
B10: Id_ii_S2_P4E.2_K4.1_C4.2_[C-2G]_H4.1_A4.1_F4.1_T4.2_[G10A]_[T11A] (ssRNA)
RNA: B1 RNA with G29U, U39A, U40A
B11: Id_ii_S2_P4E.2_K4.1_C4.2_[C-2G]_[T-1C]_H4.1_A4.1_F4.1_T4.2_[G10T]_[T11A] (ssRNA)
RNA: B1 RNA with G29C, U40A
B12: Id_ii_S2_P4E.2_K4.1_C4.2_[C-2G]_H4.1_A4.1_F4.1_T4.2_[G10T]_[T11A] (ssRNA)
RNA: B1 RNA with G29U, U40A
B13: Id_ii_S2_P4E.2_K4.1_C4.2_[C-2G]_H4.1_A4.1_F4.1_T4.2_[G10A] (ssRNA)
RNA: B1 RNA with G29U, U39A
B14: Id_ii_S2_P4E.2_K4.1_C4.2_[C-2G]_H4.1_A4.1_F4.1_T4.2_[G10T]_[T11G] (ssRNA)
RNA: B1 RNA with G29U, U40G
B15: Id_ii_S2_P4E.2_K4.1_C4.2_[C-2G]_H4.1_A4.1_F4.1_T4.2_[G10T]_[T11C] (ssRNA)
RNA: B1 RNA with G29U, U40C
B16: Id_ii_S2_P4E.2_K4.1_C4.2_[C-2G]_[T-1C]_H4.1_A4.1_F4.1_T4.2_[G10C]_[T11C] (ssRNA)
RNA: B1 RNA with G29C, U39C, U40C
B17: Id_ii_S2_P3E.4_K3.3_C3.2_[C-2T]_H3.3_A3.1_F3.1_T3.2_[A10C] (ssRNA)
RNA: UUUGAUUAAUAUGAUAUCGUUCUUUCUUUACACUAUAUCUUCUUUCUCGAUAUCAUAUUAAUCUUU
B18: Id_ii_S2_P3E.4_K3.3_C3.2_[C-2A]_[T-1A]_H3.3_A3.1_F3.1_T3.2_[T9C]_[A10G] (ssRNA)
RNA: B17 RNA with U28A, U29A, U38C, C39G
B19: Id_ii_S2_P3E.4_K3.3_C3.2_[T-1C]_H3.3_A3.1_F3.1_T3.2 (ssRNA)
RNA: B17 RNA with U28C, U29C, C39A
B20: Id_ii_S2_P3E.4_K3.3_C3.2_[C-2A]_H3.3_A3.1_F3.1_T3.2_[T9A]_[A10T] (ssRNA)
RNA: B17 RNA with U28A, U38A, C39U
B21: Id_ii_S2_P3E.4_K3.3_C3.2_[C-2A]_H3.3_A3.1_F3.1_T3.2_[T9C]_[A10C] (ssRNA)
RNA: B17 RNA with U28A, U38C
B22: Id_ii_S2_P3E.4_K3.3_C3.2_[C-2A]_H3.3_A3.1_F3.1_T3.2_[T9A]_[A10G] (ssRNA)
RNA: B17 RNA with U28A, U38A, C39G
B23: Id_ii_S2_P3E.4_K3.3_C3.2_H3.3_A3.1_F3.1_T3.2_[T9G]_[A10C] (ssRNA)
RNA: B17 RNA with U28C, U38G
B24: Id_ii_S2_P3E.4_K3.3_C3.2_[T-1C]_H3.3_A3.1_F3.1_T3.2_[T9C]_[A10C] (ssRNA)
RNA: B17 RNA with U28C, U29C, U38C
B25: Id_ii_S2_P3E.4_K3.3_C3.2_[T-1C]_H3.3_A3.1_F3.1_T3.2_[T9C]_[A10T] (ssRNA)
RNA: B17 RNA with U28C, U29C, U38C, C39U
B26: Id_ii_S2_P3E.4_K3.3_C3.2_[C-2A]_[T-1C]_H3.3_A3.1_F3.1_T3.2_[T9C]_[A10T] (ssRNA)
RNA: B17 RNA with U28A, U29C, U38C, C39U
B27: Id_ii_S2_P3E.4_K3.3_C3.2_[T-1A]_H3.3_A3.1_F3.1_T3.2_[T9C]_[A10C] (ssRNA)
RNA: B17 RNA with U28C, U29A, U38C
B28: Id_ii_S2_P3E.4_K3.3_C3.2_[T-1A]_H3.3_A3.1_F3.1_T3.2_[T9A]_[A10T] (ssRNA)
RNA: B17 RNA with U28C, U29A, U38A, C39U
B29: Id_ii_S2_P3E.4_K3.3_C3.2_[T-1G]_H3.3_A3.1_F3.1_T3.2_[A10T] (ssRNA)
RNA: B17 RNA with U28C, U29G, C39U
B30: Id_ii_S2_P3E.4_K3.3_C3.2_[T-1A]_H3.3_A3.1_F3.1_T3.2_[T9C]_[A10G] (ssRNA)
RNA: B17 RNA with U28C, U29A, U38C, C39G
B31: Id_ii_S2_P3E.4_K3.3_C3.2_[T-1A]_H3.3_A3.1_F3.1_T3.2_[T9G]_[A10C] (ssRNA)
RNA: B17 RNA with U28C, U29A, U38G
B32: Id_ii_S2_P3E.4_K3.3_C3.2_[C-2A]_[T-1C]_H3.3_A3.1_F3.1_T3.2_[T9A] (ssRNA)
RNA: B17 RNA with U28A, U29C, U38A, C39A
B33: Id_ii_S2_P3E.4_K3.3_C3.2_[C-2A]_[T-1C]_H3.3_A3.1_F3.1_T3.2_[A10T] (ssRNA)
RNA: B17 RNA with U28A, U29C, C39U
B34: Id_ii_S2_P3E.4_K3.3_C3.2_H3.3_A3.1_F3.1_T3.2_[A10T] (ssRNA)
RNA: B17 RNA with U28C, C39U
B35: Id_ii_S2_P3E.4_K3.3_C3.2_H3.3_A3.1_F3.1_T3.2_[T9A]_[A10T] (ssRNA)
RNA: B17 RNA with U28C, U38A, C39U
B36: Id_ii_S2_P3E.4_K3.3_C3.2_[C-2A]_H3.3_A3.1_F3.1_T3.2_[T9A] (ssRNA)
RNA: B17 RNA with U28A, U38A, C39A
B37: Id_ii_S2_P3E.4_K3.3_C3.2_[T-1C]_H3.3_A3.1_F3.1_T3.2_[T9A]_[A10T] (ssRNA)
RNA: B17 RNA with U28C, U29C, U38A, C39U
B38: Id_ii_S2_P3E.4_K3.3_C3.2_[T-1A]_H3.3_A3.1_F3.1_T3.2_[T9C]_[A10T] (ssRNA)
RNA: B17 RNA with U28C, U29A, U38C, C39U
B39: Id_ii_S2_P3E.4_K3.3_C3.2_H3.3_A3.1_F3.1_T3.2_[A10C] (ssRNA)
RNA: B17 RNA with U28C
B40: Id_ii_S2_P3E.4_K3.3_C3.2_[C-2A]_[T-1A]_H3.3_A3.1_F3.1_T3.2_[T9A]_[A10T] (ssRNA)
RNA: B17 RNA with U28A, U29A, U38A, C39U
B41: Id_ii_S2_P3E.4_K3.3_C3.2_[C-2A]_H3.3_A3.1_F3.1_T3.2_[T9C] (ssRNA)
RNA: B17 RNA with U28A, U38C, C39A
B42: Id_ii_S2_P3E.4_K3.3_C3.2_[C-2A]_[T-1A]_H3.3_A3.1_F3.1_T3.2_[A10C] (ssRNA)
RNA: B17 RNA with U28A, U29A
B43: Id_ii_S2_P3E.4_K3.3_C3.2_[C-2A]_H3.3_A3.1_F3.1_T3.2_[A10C] (ssRNA)
RNA: B17 RNA with U28A
B44: Id_ii_S2_P3E.4_K3.3_C3.2_H3.3_A3.1_F3.1_T3.2_[T9A] (ssRNA)
RNA: B17 RNA with U28C, U38A, C39A
B45: Id_ii_S2_P3E.4_K3.3_C3.2_[C-2A]_[T-1A]_H3.3_A3.1_F3.1_T3.2_[T9A] (ssRNA)
RNA: B17 RNA with U28A, U29A, U38A, C39A
B46: Id_ii_S2_P3E.4_K3.3_C3.2_[C-2A]_H3.3_A3.1_F3.1_T3.2_[T9C]_[A10G] (ssRNA)
RNA: B17 RNA with U28A, U38C, C39G
B47: Id_ii_S2_P3E.4_K3.3_C3.2_[T-1A]_H3.3_A3.1_F3.1_T3.2_[A10T] (ssRNA)
RNA: B17 RNA with U28C, U29A, C39U

The term Kd denotes the free concentration of one partner at which half of the binding sites on the other are occupied at equilibrium, for simple one-to-one binding.

Substitutions are numbered along the chain they refer to. Names and notes keep the numbering of the source. Bounds are passed on as bounds.

The target of the data set is T1, PUF4 RNA-binding domain. Put plainly: Mg; RNA-MaP; 20 mM Na-HEPES pH 7.4, 30 mM KOAc, 0.75 mM MgCl2, 0.1% Tween-20, 5% glycerol, 0.1 mg/mL BSA, 2 mM DTT; 25 C; 0.0125-409.6 nM protein. The following applies: tags: N-His6-TEV cleaved; C-SNAP kept, Cy3B-labelled; label: tethered on chip by stalled RNA polymerase.
With UCUCUUUGUAUUAUUCUCUCUU (ssRNA) [Ia_S1_P5E.1_K5.1_C5.1_H5.1_A5.1_F5.1_[A10C]_T5.1], the dissociation constant (Kd) was determined as 16.4 nM.
Under B1 stands 0.435 nM; under B2, 0.289 nM.
With B3 the figure was 1.8 nM; with B4, 0.535 nM; with B5, 0.82 nM.
The molecule B6 had a Kd of 0.416 nM.
Turning to B7, the equilibrium dissociation constant (Kd) turned out to be 1.5 nM.
The molecule B8 returned a Kd of 0.738 nM.
The molecule B9 registered a Kd of 0.667 nM.
Under B10 stands 0.659 nM; under B11, 0.822 nM; under B12, 0.928 nM.
B13 showed a Kd of 0.724 nM. The Kd values of the last two molecules are within 1.5-fold of each other.
B14 displayed a Kd of 0.585 nM.
With B15 the figure was 1.6 nM; with B16, 1.25 nM.
With UCUCUUUGUCUUAUAAUCUCUU (ssRNA) [Ib_S1_P5E.1_K5.1_C5.1_H5.1_[A4C]_A5.1_F5.1_[T9A]_T5.1] the figure was 102 nM; with UCUCUUUGUUUUAUAAUCUCUU (ssRNA) [Ib_S1_P5E.1_K5.1_C5.1_H5.1_[A4T]_A5.1_F5.1_[T9A]_T5.1], 87.4 nM.
UCUCUUUGUUUUAUGAUCUCUU (ssRNA) [Ib_S1_P5E.1_K5.1_C5.1_H5.1_[A4T]_A5.1_F5.1_[T9G]_T5.1] showed a dissociation constant (Kd) of 981 nM. Against the preceding molecule, the Kd is about 11-fold higher.
Under UCUCUUUGUCUUAUCAUCUCUU (ssRNA) [Ib_S1_P5E.1_K5.1_C5.1_H5.1_[A4C]_A5.1_F5.1_[T9C]_T5.1] stands 2040 nM; under B17, 475 nM; under B18, greater than 2300 nM.
As for B19, the affinity, expressed as Kd, was 194 nM.
Under B20 stands 32.2 nM.
Under B21 stands 15.5 nM; under B22, 174 nM.
With B23 the figure was 1600 nM; with B24, 1460 nM.
The molecule B25 gave a Kd of 1080 nM.
With B26 the figure was 1810 nM.
With B27 the figure was 2100 nM.
Under B28 stands greater than 2300 nM; under B29, 1500 nM; under B30, greater than 2300 nM.
Turning to B31, the Kd was greater than 2300 nM.
With B32 the figure was 1070 nM.
Under B33 stands 868 nM.
For the molecule B34, the equilibrium dissociation constant (Kd) was 399 nM. Compared with the last molecule, the Kd is about 2.2-fold lower.
Under B35 stands 776 nM.
Under B36 stands 27.3 nM.
Under B37 stands 1890 nM; under B38, greater than 2300 nM; under B39, 343 nM.
B40 yielded a Kd greater than 2300 nM.
Under B41 stands 21.7 nM.
Under B42 stands 1770 nM; under B43, 11.8 nM; under B44, 454 nM.
With B45 the figure was 2020 nM; with B46, 116 nM.
B47 yielded a Kd of 1130 nM.
Under UCUCUUUGUGUUAUAAUCUCUU (ssRNA) [Ib_S1_P5E.1_K5.1_C5.1_H5.1_[A4G]_A5.1_F5.1_[T9A]_T5.1] stands 57.8 nM.

The values above are taken from publication PMC9352680, “A comprehensive thermodynamic model for RNA binding by the Saccharomyces cerevisiae Pumilio protein PUF4”.
